Data taken from patent US20130323248A1 (SORRENTO THERAPEUTICS, published 2013).

Biological target: T1, human DLL-4 expressed on the surface of CHO-K1 cells (CHO-DLL-4 cells) (human, UniProt Q9NR61 27-685)
T1 construct: whole, on cells; also called cell surface expressed DLL-4; cellular human DLL-4
Experiment: flow cytometry (HTFC) on CHO-K1 cells stably expressing DLL-4
Experimental: Cells stably expressing DLL-4 were incubated with 1 μg/ml of anti-DLL-4 antibodies as indicated. The binding was analyzed by flow cytometry (HTFC, Intellicyt).
This example illustrates in vitro data for cell binding as part of an initial screen for several disclosed antibodies. CHO-K1 cells stably expressing DLL-4 (CHO-DLL-4 cells) were lifted in enzyme-free Dissociation Buffer and transferred to V-Bottom 96 well-plates (100,000 cells/well). Cells were incubated with anti-DLL-4 Antibodies in FACS buffer (PBS+2% FBS)+NaN₃ on ice for 45 min. After 2 washes in FACS buffer, a 1:1000 dilution of Phycoerythrin conjugated anti-Human IgG (γ-chain specific) was added and incubated for 30 min. Following a final wash, fluorescence intensity was measured on an Intellicyt High Throughput Flow Cytometer (HTFC). Data were analyzed using Graphpad Prism software using non-linear regression fit. Data points are shown as the median fluorescence intensity (MFI) of positively labeled cells +/− Standard Error. EC₅₀ values are reported as the concentration of antibody to achieve 50% of maximal DLL-4 antibodies binding to DLL-4 expressing cells.

B1: anti-DLL-4 antibody C3 (antibody, V domains shown)
VH: QVQLVQSGSELKKPGASVKVSCKASGYTFTSYYMHWVRQVPGQGLEWMGIINPSGGSTSYAQKFQGRVTMTRDTSTSTVYMELSSLRSEDTAVYYCATDYYDSSGYVDFDYWGQGTLVTVSS
VL: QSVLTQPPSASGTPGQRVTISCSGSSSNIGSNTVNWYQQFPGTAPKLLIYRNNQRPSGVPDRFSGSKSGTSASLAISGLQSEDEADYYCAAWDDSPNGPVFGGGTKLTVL
notes: it was detected with anti-human IgG (gamma-chain specific)
binding result: binds

B2: anti-DLL-4 antibody G6 (antibody, V domains shown)
VH: EVQLVESGGSLVQPGGSLRLSCAASGFTFSNGWMTWLRQAPGKGLEWVATIKPDGSDTAYVESVKGRFTISRDNAKNLLYLQMDSLRGDDTAVYFCARDLAYNAFDIWGQGTMVTVSS
VL: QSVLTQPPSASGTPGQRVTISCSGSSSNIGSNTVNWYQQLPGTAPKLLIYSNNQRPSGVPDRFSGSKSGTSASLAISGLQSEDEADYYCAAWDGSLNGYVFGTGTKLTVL
notes: Fully human antibody of an IgG class
binding result: binds
